# Laboratory results taken from patent US20240400708A1.
# Residue numbers refer to the chain shown, from its start. Numbers in names are those of the source.
# B1: feline IgG1a Q311W/D312P/S434Y (antibody, part only; not given: Variable domains, not shown: another chain or arm of the molecule)
# constant: ASTTAPSVFPLAPSCGTTSGATVALACLVLGYFPEPVTVSWNSGALTSGVHTFPAVLQASGLYSLSSMVTVPSSRWLSDTFTCNVAHPPSNTKVDKTVRKTDHPPGPKPCDCPKCPPPEMLGGPSIFIFPPKPKDTLSISRTPEVTCLVVDLGPDDSDVQITWFVDNTQVYTAKTSPREEQFNSTYRVVSVLPILHWPWLKGKEFKCKVNSKSLPSPIERTISKAKGQPHEPQVYVLPPAQEELSRNKVSVTCLIKSFHPPDIAVEWEITGQPEPENNYRTTPPQLDSDGTYFVYSKLSVDRSHWQRGNTYTCSVSHEALHYHHTQKSLTQSPGK
# B2: feline IgG1a S252H/S428M/S434L (antibody, part only; not given: Variable domains, not shown: another chain or arm of the molecule)
# constant: B1 constant with S138H, W197Q, P198D, S316M, Y322L
# B3: feline IgG1a S252Y/S434R/Q311W (antibody, part only; not given: Variable domains, not shown: another chain or arm of the molecule)
# constant: B1 constant with S138Y, P198D, Y322R
# B4: feline IgG1a S252Y/D312P/L314K (antibody, part only; not given: Variable domains, not shown: another chain or arm of the molecule)
# constant: B1 constant with S138Y, W197Q, L200K, Y322S
# B5: feline IgG1a S252Y/Q311W/L314K (antibody, part only; not given: Variable domains, not shown: another chain or arm of the molecule)
# constant: B1 constant with S138Y, P198D, L200K, Y322S
# B6: feline IgG1a S428Y/D312P (antibody, part only; not given: Variable domains, not shown: another chain or arm of the molecule; small tags and cut ends)
# constant: B1 constant with W197Q, S316Y, Y322S
# B7: feline IgG1a S428Y/D312P/L314K (antibody, part only; not given: Variable domains, not shown: another chain or arm of the molecule)
# constant: B1 constant with W197Q, L200K, S316Y, Y322S
# B8: feline IgG1a S252H/S428M/S434F (antibody, part only; not given: Variable domains, not shown: another chain or arm of the molecule)
# constant: B1 constant with S138H, W197Q, P198D, S316M, Y322F
# B9: feline IgG1a S428Y/L314K/S434Y (antibody, part only; not given: Variable domains, not shown: another chain or arm of the molecule)
# constant: B1 constant with W197Q, P198D, L200K, S316Y
# B10: feline IgG1a S428Y/Q311W/D312P (antibody, part only; not given: Variable domains, not shown: another chain or arm of the molecule)
# constant: B1 constant with S316Y, Y322S
# B11: feline IgG1a S252H/S428M/S434P (antibody, part only; not given: Variable domains, not shown: another chain or arm of the molecule)
# constant: B1 constant with S138H, W197Q, P198D, S316M, Y322P
# B12: feline IgG1a S252F/S434R (antibody, part only; not given: Variable domains, not shown: another chain or arm of the molecule; small tags and cut ends)
# constant: B1 constant with S138F, W197Q, P198D, Y322R
# B13: feline IgG1a Q311W/L314K (antibody, part only; not given: Variable domains, not shown: another chain or arm of the molecule)
# constant: B1 constant with P198D, L200K, Y322S
# B14: feline IgG1a S428Y/Q311W/L314K (antibody, part only; not given: Variable domains, not shown: another chain or arm of the molecule)
# constant: B1 constant with P198D, L200K, S316Y, Y322S
# B15: feline IgG1a D312K (antibody, part only; not given: Variable domains, not shown: another chain or arm of the molecule)
# constant: B1 constant with W197Q, P198K, Y322S
# B16: feline IgG1a S252Y/S434W/Q311W (antibody, part only; not given: Variable domains, not shown: another chain or arm of the molecule)
# constant: B1 constant with S138Y, P198D, Y322W
# B17: feline IgG1a S252Y/D312P/S434Y (antibody, part only; not given: Variable domains, not shown: another chain or arm of the molecule; small tags and cut ends)
# constant: B1 constant with S138Y, W197Q
# B18: feline IgG1a D312P/L314K (antibody, part only; not given: Variable domains, not shown: another chain or arm of the molecule)
# constant: B1 constant with W197Q, L200K, Y322S
# B19: feline IgG1a S428Y/S434Y (antibody, part only; not given: Variable domains, not shown: another chain or arm of the molecule)
# constant: B1 constant with W197Q, P198D, S316Y
# B20: feline IgG1a S252Y/S428Y/L314K (antibody, part only; not given: Variable domains, not shown: another chain or arm of the molecule)
# constant: B1 constant with S138Y, W197Q, P198D, L200K, S316Y, Y322S
# B21: feline IgG1a S428Y/Q311W (antibody, part only; not given: Variable domains, not shown: another chain or arm of the molecule)
# constant: B1 constant with P198D, S316Y, Y322S
# B22: feline IgG1a S252H/S428M/S434W (antibody, part only; not given: Variable domains, not shown: another chain or arm of the molecule)
# constant: B1 constant with S138H, W197Q, P198D, S316M, Y322W
# B23: feline IgG1a S252F/S434W (antibody, part only; not given: Variable domains, not shown: another chain or arm of the molecule)
# constant: B1 constant with S138F, W197Q, P198D, Y322W
# B24: feline IgG1a S252F/S434F (antibody, part only; not given: Variable domains, not shown: another chain or arm of the molecule)
# constant: B1 constant with S138F, W197Q, P198D, Y322F
# B25: feline IgG1a S252Y/S434H/Q311W (antibody, part only; not given: variable domains, not shown: another chain or arm of the molecule)
# constant: B1 constant with S138Y, P198D, Y322H
# B26: feline IgG1a S434W (antibody, part only; not given: Variable domains, not shown: another chain or arm of the molecule)
# constant: B1 constant with W197Q, P198D, Y322W
# B27: feline IgG1a S252Y/L314K/S434Y (antibody, part only; not given: Variable domains, not shown: another chain or arm of the molecule; small tags and cut ends)
# constant: B1 constant with S138Y, W197Q, P198D, L200K
# B28: feline IgG1a S252H/D312P (antibody, part only; not given: variable domains, not shown: another chain or arm of the molecule; small tags and cut ends)
# constant: B1 constant with S138H, W197Q, Y322S
# B29: feline IgG1a S252Y/S434R (antibody, part only; not given: Variable domains, not shown: another chain or arm of the molecule; small tags and cut ends)
# constant: B1 constant with S138Y, W197Q, P198D, Y322R
# B30: feline IgG1a S252Y/Q311W/D312P (antibody, part only; not given: Variable domains, not shown: another chain or arm of the molecule)
# constant: B1 constant with S138Y, Y322S
# B31: feline IgG1a S252F/S434Y (antibody, part only; not given: Variable domains, not shown: another chain or arm of the molecule)
# constant: B1 constant with S138F, W197Q, P198D
# B32: feline IgG1a S428Y/L314K (antibody, part only; not given: Variable domains, not shown: another chain or arm of the molecule)
# constant: B1 constant with W197Q, P198D, L200K, S316Y, Y322S
# B33: feline IgG1a S428Y/D312P/S434Y (antibody, part only; not given: Variable domains, not shown: another chain or arm of the molecule; small tags and cut ends)
# constant: B1 constant with W197Q, S316Y
# B34: feline IgG1a S252H/S428M/Q311W (antibody, part only; not given: Variable domains, not shown: another chain or arm of the molecule)
# constant: B1 constant with S138H, P198D, S316M, Y322S
# B35: feline IgG1a S428Y/Q311W/S434Y (antibody, part only; not given: Variable domains, not shown: another chain or arm of the molecule; small tags and cut ends)
# constant: B1 constant with P198D, S316Y
# B36: feline IgG1a S252Y/Q311W (antibody, part only; not given: Variable domains, not shown: another chain or arm of the molecule)
# constant: B1 constant with S138Y, P198D, Y322S
# B37: feline IgG1a S252H/L314K (antibody, part only; not given: Variable domains, not shown: another chain or arm of the molecule; small tags and cut ends)
# constant: B1 constant with S138H, W197Q, P198D, L200K, Y322S
# B38: feline IgG1a D312A (antibody, part only; not given: Variable domains, not shown: another chain or arm of the molecule; small tags and cut ends)
# constant: B1 constant with W197Q, P198A, Y322S
# B39: feline IgG1a S252H/S428M/Q311Y (antibody, part only; not given: Variable domains, not shown: another chain or arm of the molecule)
# constant: B1 constant with S138H, W197Y, P198D, S316M, Y322S
# B40: feline IgG1a S252H/S428M (antibody, part only; not given: Variable domains, not shown: another chain or arm of the molecule; small tags and cut ends)
# constant: B1 constant with S138H, W197Q, P198D, S316M, Y322S
# B41: feline IgG1a S252H/Q311Y (antibody, part only; not given: variable domains and light chain, not shown: another chain or arm of the molecule; small tags and cut ends)
# constant: B1 constant with S138H, W197Y, P198D, Y322S
# B42: feline IgG1a S252H/S428M/D312P (ID No. 221) (antibody, part only; not given: Variable domains, not shown: another chain or arm of the molecule)
# constant: B1 constant with S138H, W197Q, S316M, Y322S
# B43: feline IgG1a S252Y/S434W (antibody, part only; not given: Variable domains, not shown: another chain or arm of the molecule)
# constant: B1 constant with S138Y, W197Q, P198D, Y322W
# B44: feline IgG1a S252H/Q311W (antibody, part only; not given: Variable domains, not shown: another chain or arm of the molecule; small tags and cut ends)
# constant: B1 constant with S138H, P198D, Y322S
# B45: feline IgG1a S252Y/S428Y/D312P (antibody, part only; not given: variable domains, not shown: another chain or arm of the molecule)
# constant: B1 constant with S138Y, W197Q, S316Y, Y322S
# B46: feline IgG1a S434Y (antibody, part only; not given: Variable domains, not shown: another chain or arm of the molecule)
# constant: B1 constant with W197Q, P198D
# Legend:
# [1] = molecular target: feline FcRn complex (FcRn-α subunit and β-microglobulin), biotin labeled (feline); assay: SPR, pH 7.4
# [2] = molecular target: feline FcRn complex (FcRn-α subunit and β-microglobulin), biotin labeled (feline); assay: SPR, pH 6
binder,measurement,setting,value
B1,Kd,[1],37.7 nM
same,Kd,[2],1.53 nM
B2,Kd,[1],3.55 nM
same,Kd,[2],8.59 nM
B3,Kd,[1],4.44 nM
same,Kd,[2],0.143 nM
B4,Kd,[1],1820 nM
same,Kd,[2],26.7 nM
B5,Kd,[1],179 nM
same,Kd,[2],10.8 nM
B6,Kd,[1],2760 nM
same,Kd,[2],34.1 nM
B7,Kd,[1],6860 nM
same,Kd,[2],15.2 nM
B8,Kd,[1],26.9 nM
same,Kd,[2],0.121 nM
B9,Kd,[1],17.2 nM
same,Kd,[2],0.793 nM
B10,Kd,[1],4190 nM
same,Kd,[2],26 nM
B11,Kd,[1],55.6 nM
same,Kd,[2],7.45 nM
B12,Kd,[1],398 nM
same,Kd,[2],3.59 nM
B13,Kd,[1],55.8 nM
same,Kd,[2],3.47 nM
B14,Kd,[1],348 nM
same,Kd,[2],10.1 nM
B15,Kd,[1],56.1 nM
same,Kd,[2],5.86 nM
B16,Kd,[1],2190 nM
same,Kd,[2],6.59 nM
B17,Kd,[1],2.26 nM
same,Kd,[2],0.0221 nM
B18,Kd,[1],311 nM
same,Kd,[2],7.24 nM
B19,Kd,[1],235 nM
same,Kd,[2],4.65 nM
B20,Kd,[1],23300 nM
same,Kd,[2],7.93 nM
B21,Kd,[1],7630 nM
same,Kd,[2],12.7 nM
B22,Kd,[1],20.8 nM
same,Kd,[2],0.135 nM
B23,Kd,[1],1370 nM
same,Kd,[2],6.15 nM
B24,Kd,[1],2350 nM
same,Kd,[2],173 nM
B25,Kd,[1],989 nM
same,Kd,[2],8.39 nM
B26,Kd,[1],21.6 nM
same,Kd,[2],0.771 nM
B27,Kd,[1],2.85 nM
same,Kd,[2],0.0496 nM
B28,Kd,[1],26.7 nM
same,Kd,[2],3.9 nM
B29,Kd,[1],10900 nM
same,Kd,[2],4.12 nM
B30,Kd,[1],1130 nM
same,Kd,[2],35.2 nM
B31,Kd,[1],1470 nM
same,Kd,[2],9.28 nM
B32,Kd,[1],1850 nM
same,Kd,[2],7.63 nM
B33,Kd,[1],864 nM
same,Kd,[2],1.48 nM
B34,Kd,[1],54.6 nM
same,Kd,[2],3.14 nM
B35,Kd,[1],1510 nM
same,Kd,[2],3.8 nM
B36,Kd,[1],953 nM
same,Kd,[2],26.9 nM
B37,Kd,[1],20 nM
same,Kd,[2],6.37 nM
B38,Kd,[1],8180 nM
same,Kd,[2],6.95 nM
B39,Kd,[1],141 nM
same,Kd,[2],5.73 nM
B40,Kd,[1],101 nM
same,Kd,[2],2.65 nM
B41,Kd,[1],36.5 nM
same,Kd,[2],12.1 nM
B42,Kd,[1],330 nM
same,Kd,[2],8.22 nM
B43,Kd,[1],8380 nM
same,Kd,[2],10.2 nM
B44,Kd,[1],25 nM
same,Kd,[2],6.04 nM
B45,Kd,[1],4080 nM
same,Kd,[2],15.1 nM
B46,Kd,[1],14.4 nM
same,Kd,[2],0.433 nM
